Test results: article PMC13365592

What was measured:
Assay in all cases: cryo-EM structure
[1] = target: major capsid protein MEL_305 (melbournevirus)
MEL_256 (melbournevirus) = target: MEL_256 (melbournevirus)
[2] = target: MEL_213b (melbournevirus)

Substance: major capsid protein MEL_305 (natural protein)
- stoichiometry N [1]: 3

Substance: MEL_256 (natural protein)
- stoichiometry N (MEL_256 (melbournevirus)): 5

Substance: MEL_213b (natural protein)
- stoichiometry N [2]: 2
